Results on 41 molecules are retold here after article PMC9352680, “A comprehensive thermodynamic model for RNA binding by the Saccharomyces cerevisiae Pumilio protein PUF4”.

Sequences and labels used below:
B1: Ie_S2_P4E.1_K4.1_C4.1_H4.1_[+1CCT]_A4.1_F4.1_T4.1 (ssRNA)
RNA: UUUGAUUAAUAUGAUAUCGUUCUUUCUUCCUGUAUAUUAUUCUUUCUCGAUAUCAUAUUAAUCUUU
B2: Ie_S2_P4E.1_K4.1_C4.1_H4.1_[+1CTT]_A4.1_F4.1_T4.1 (ssRNA)
RNA: UUUGAUUAAUAUGAUAUCGUUCUUUCUUCUUGUAUAUUAUUCUUUCUCGAUAUCAUAUUAAUCUUU
B3: Ie_S2_P4E.1_K4.1_C4.1_H4.1_[+1TTC]_A4.1_F4.1_T4.1 (ssRNA)
RNA: UUUGAUUAAUAUGAUAUCGUUCUUUCUUUUCGUAUAUUAUUCUUUCUCGAUAUCAUAUUAAUCUUU
B4: Ie_S2_P4E.1_K4.1_C4.1_H4.1_[+2TCC]_A4.1_F4.1_T4.1 (ssRNA)
RNA: UUUGAUUAAUAUGAUAUCGUUCUUUCUUGUCCUAUAUUAUUCUUUCUCGAUAUCAUAUUAAUCUUU
B5: Ie_S2_P4E.1_K4.1_C4.1_H4.1_[+1TCT]_A4.1_F4.1_T4.1 (ssRNA)
RNA: UUUGAUUAAUAUGAUAUCGUUCUUUCUUUCUGUAUAUUAUUCUUUCUCGAUAUCAUAUUAAUCUUU
B6: Ie_S2_P4E.1_K4.1_C4.1_H4.1_[+3CTC]_A4.1_F4.1_T4.1 (ssRNA)
RNA: UUUGAUUAAUAUGAUAUCGUUCUUUCUUGUCUCAUAUUAUUCUUUCUCGAUAUCAUAUUAAUCUUU
B7: Ie_S2_P4E.1_K4.1_C4.1_H4.1_[+2CTT]_A4.1_F4.1_T4.1 (ssRNA)
RNA: UUUGAUUAAUAUGAUAUCGUUCUUUCUUGCUUUAUAUUAUUCUUUCUCGAUAUCAUAUUAAUCUUU
B8: Ie_S2_P4E.1_K4.1_C4.1_H4.1_[+3CTT]_A4.1_F4.1_T4.1 (ssRNA)
RNA: UUUGAUUAAUAUGAUAUCGUUCUUUCUUGUCUUAUAUUAUUCUUUCUCGAUAUCAUAUUAAUCUUU
B9: Ie_S2_P4E.1_K4.1_C4.1_H4.1_[+1CCTC]_A4.1_F4.1_T4.1 (ssRNA)
RNA: UUUGAUUAAUAUGAUAUCGUUCUUUCUUCCUCGUAUAUUAUUCUUUCUCGAUAUCAUAUUAAUCUUU
B10: Ie_S2_P4E.1_K4.1_C4.1_H4.1_[+2TTCC]_A4.1_F4.1_T4.1 (ssRNA)
RNA: UUUGAUUAAUAUGAUAUCGUUCUUUCUUGUUCCUAUAUUAUUCUUUCUCGAUAUCAUAUUAAUCUUU
B11: Ie_S2_P4E.1_K4.1_C4.1_H4.1_[+2TCTC]_A4.1_F4.1_T4.1 (ssRNA)
RNA: UUUGAUUAAUAUGAUAUCGUUCUUUCUUGUCUCUAUAUUAUUCUUUCUCGAUAUCAUAUUAAUCUUU
B12: Ie_S2_P4E.1_K4.1_C4.1_H4.1_[+1CCCT]_A4.1_F4.1_T4.1 (ssRNA)
RNA: UUUGAUUAAUAUGAUAUCGUUCUUUCUUCCCUGUAUAUUAUUCUUUCUCGAUAUCAUAUUAAUCUUU
B13: Ie_S2_P4E.1_K4.1_C4.1_H4.1_[+2CTCT]_A4.1_F4.1_T4.1 (ssRNA)
RNA: UUUGAUUAAUAUGAUAUCGUUCUUUCUUGCUCUUAUAUUAUUCUUUCUCGAUAUCAUAUUAAUCUUU
B14: Ie_S2_P4E.1_K4.1_C4.1_H4.1_[+2CCCT]_A4.1_F4.1_T4.1 (ssRNA)
RNA: UUUGAUUAAUAUGAUAUCGUUCUUUCUUGCCCUUAUAUUAUUCUUUCUCGAUAUCAUAUUAAUCUUU
B15: Ie_S2_P3E.2_K3.1_C3.2_H3.1_A3.1_F3.1_[+8TTC]_T3.2 (ssRNA)
RNA: UUUGAUUAAUAUGAUAUCGUUCUUUCUCUUGUAUAUAUUCUAUUCUUUCUCGAUAUCAUAUUAAUCUUU
B16: Ie_S2_P3E.2_K3.1_C3.2_H3.1_A3.1_F3.1_[+8TCT]_T3.2 (ssRNA)
RNA: UUUGAUUAAUAUGAUAUCGUUCUUUCUCUUGUAUAUAUCUUAUUCUUUCUCGAUAUCAUAUUAAUCUUU
B17: Ib_S2_P3E.1_K3.1_C3.1_H3.1_A3.1_[T5C]_F3.1_[A8T]_T3.1 (ssRNA)
RNA: UUUGAUUAAUAUGAUAUCGUUCUUUCUUGUACAUUUUCUUUCUCGAUAUCAUAUUAAUCUUU
B18: Ib_S2_P3E.1_K3.1_C3.1_H3.1_A3.1_[A6T]_F3.1_[A8G]_T3.1 (ssRNA)
RNA: UUUGAUUAAUAUGAUAUCGUUCUUUCUUGUAUUUGUUCUUUCUCGAUAUCAUAUUAAUCUUU
B19: Ic_S2_P3E.1_K3.1_C3.1_H3.1_A3.1_[A6G]_F3.1_[A8G]_T3.1 (ssRNA)
RNA: UUUGAUUAAUAUGAUAUCGUUCUUUCUUGUAUGUGUUCUUUCUCGAUAUCAUAUUAAUCUUU
B20: Ib_S2_P3E.1_K3.1_C3.1_H3.1_A3.1_[A6C]_F3.1_[A8G]_T3.1 (ssRNA)
RNA: UUUGAUUAAUAUGAUAUCGUUCUUUCUUGUAUCUGUUCUUUCUCGAUAUCAUAUUAAUCUUU
B21: Ie_S2_P4E.1_K4.1_C4.1_H4.1_[+1T]_A4.1_F4.1_T4.1 (ssRNA)
RNA: UUUGAUUAAUAUGAUAUCGUUCUUUCUUUGUAUAUUAUUCUUUCUCGAUAUCAUAUUAAUCUUU
B22: Ie_S2_P4E.1_K4.1_C4.1_H4.1_[+2C]_A4.1_F4.1_T4.1 (ssRNA)
RNA: UUUGAUUAAUAUGAUAUCGUUCUUUCUUGCUAUAUUAUUCUUUCUCGAUAUCAUAUUAAUCUUU
B23: Ie_S2_P3E.2_K3.1_C3.2_H3.1_A3.1_F3.1_[+8TCTC]_T3.2 (ssRNA)
RNA: UUUGAUUAAUAUGAUAUCGUUCUUUCUCUUGUAUAUAUCUCUAUUCUUUCUCGAUAUCAUAUUAAUCUUU
B24: Ie_S2_P3E.2_K3.1_C3.2_H3.1_A3.1_F3.1_[+8TTCC]_T3.2 (ssRNA)
RNA: UUUGAUUAAUAUGAUAUCGUUCUUUCUCUUGUAUAUAUUCCUAUUCUUUCUCGAUAUCAUAUUAAUCUUU
B25: Ie_S2_P3E.2_K3.1_C3.2_H3.1_A3.1_F3.1_[+8CCTC]_T3.2 (ssRNA)
RNA: UUUGAUUAAUAUGAUAUCGUUCUUUCUCUUGUAUAUACCUCUAUUCUUUCUCGAUAUCAUAUUAAUCUUU
B26: Ie_S2_P4E.1_K4.1_C4.1_H4.1_[+1TC]_A4.1_F4.1_T4.1 (ssRNA)
RNA: UUUGAUUAAUAUGAUAUCGUUCUUUCUUUCGUAUAUUAUUCUUUCUCGAUAUCAUAUUAAUCUUU
B27: Ie_S2_P4E.1_K4.1_C4.1_H4.1_[+3TT]_A4.1_F4.1_T4.1 (ssRNA)
RNA: UUUGAUUAAUAUGAUAUCGUUCUUUCUUGUUUAUAUUAUUCUUUCUCGAUAUCAUAUUAAUCUUU
B28: Ie_S2_P4E.1_K4.1_C4.1_H4.1_[+2CT]_A4.1_F4.1_T4.1 (ssRNA)
RNA: UUUGAUUAAUAUGAUAUCGUUCUUUCUUGCUUAUAUUAUUCUUUCUCGAUAUCAUAUUAAUCUUU
B29: Ie_S2_P4E.1_K4.1_C4.1_H4.1_[+2TC]_A4.1_F4.1_T4.1 (ssRNA)
RNA: UUUGAUUAAUAUGAUAUCGUUCUUUCUUGUCUAUAUUAUUCUUUCUCGAUAUCAUAUUAAUCUUU
B30: Ie_S2_P4E.1_K4.1_C4.1_H4.1_[+1TCTCT]_A4.1_F4.1_T4.1 (ssRNA)
RNA: UUUGAUUAAUAUGAUAUCGUUCUUUCUUUCUCUGUAUAUUAUUCUUUCUCGAUAUCAUAUUAAUCUUU
B31: Ie_S2_P4E.1_K4.1_C4.1_H4.1_[+1CCCTT]_A4.1_F4.1_T4.1 (ssRNA)
RNA: UUUGAUUAAUAUGAUAUCGUUCUUUCUUCCCUUGUAUAUUAUUCUUUCUCGAUAUCAUAUUAAUCUUU
B32: Ie_S2_P4E.1_K4.1_C4.1_H4.1_[+2CCTCT]_A4.1_F4.1_T4.1 (ssRNA)
RNA: UUUGAUUAAUAUGAUAUCGUUCUUUCUUGCCUCUUAUAUUAUUCUUUCUCGAUAUCAUAUUAAUCUUU
B33: Ie_S2_P4E.1_K4.1_C4.1_H4.1_[+2CTCTC]_A4.1_F4.1_T4.1 (ssRNA)
RNA: UUUGAUUAAUAUGAUAUCGUUCUUUCUUGCUCUCUAUAUUAUUCUUUCUCGAUAUCAUAUUAAUCUUU
B34: Ie_S2_P4E.1_K4.1_C4.1_H4.1_[+2TCTCT]_A4.1_F4.1_T4.1 (ssRNA)
RNA: UUUGAUUAAUAUGAUAUCGUUCUUUCUUGUCUCUUAUAUUAUUCUUUCUCGAUAUCAUAUUAAUCUUU
B35: Ie_S2_P4E.1_K4.1_C4.1_H4.1_[+1CCTCT]_A4.1_F4.1_T4.1 (ssRNA)
RNA: UUUGAUUAAUAUGAUAUCGUUCUUUCUUCCUCUGUAUAUUAUUCUUUCUCGAUAUCAUAUUAAUCUUU
B36: Ie_S2_P4E.1_K4.1_C4.1_H4.1_[+1TTCCT]_A4.1_F4.1_T4.1 (ssRNA)
RNA: UUUGAUUAAUAUGAUAUCGUUCUUUCUUUUCCUGUAUAUUAUUCUUUCUCGAUAUCAUAUUAAUCUUU
B37: Ie_S2_P3E.2_K3.1_C3.2_H3.1_A3.1_F3.1_[+8CTCTC]_T3.2 (ssRNA)
RNA: UUUGAUUAAUAUGAUAUCGUUCUUUCUCUUGUAUAUACUCUCUAUUCUUUCUCGAUAUCAUAUUAAUCUUU
B38: Ie_S2_P3E.2_K3.1_C3.2_H3.1_A3.1_F3.1_[+8TTCCT]_T3.2 (ssRNA)
RNA: UUUGAUUAAUAUGAUAUCGUUCUUUCUCUUGUAUAUAUUCCUUAUUCUUUCUCGAUAUCAUAUUAAUCUUU
B39: Ie_S2_P3E.2_K3.1_C3.2_H3.1_A3.1_F3.1_[+8TCTCT]_T3.2 (ssRNA)
RNA: UUUGAUUAAUAUGAUAUCGUUCUUUCUCUUGUAUAUAUCUCUUAUUCUUUCUCGAUAUCAUAUUAAUCUUU
B40: Ie_S2_P3E.2_K3.1_C3.2_H3.1_A3.1_F3.1_[+8CCTCT]_T3.2 (ssRNA)
RNA: UUUGAUUAAUAUGAUAUCGUUCUUUCUCUUGUAUAUACCUCUUAUUCUUUCUCGAUAUCAUAUUAAUCUUU
B41: Ie_S2_P3E.2_K3.1_C3.2_H3.1_A3.1_F3.1_[+8CCCTT]_T3.2 (ssRNA)
RNA: UUUGAUUAAUAUGAUAUCGUUCUUUCUCUUGUAUAUACCCUUUAUUCUUUCUCGAUAUCAUAUUAAUCUUU

In this data set the target is T1, PUF4 RNA-binding domain (Saccharomyces cerevisiae, UniProt P25339 537-888).
T1 sequence: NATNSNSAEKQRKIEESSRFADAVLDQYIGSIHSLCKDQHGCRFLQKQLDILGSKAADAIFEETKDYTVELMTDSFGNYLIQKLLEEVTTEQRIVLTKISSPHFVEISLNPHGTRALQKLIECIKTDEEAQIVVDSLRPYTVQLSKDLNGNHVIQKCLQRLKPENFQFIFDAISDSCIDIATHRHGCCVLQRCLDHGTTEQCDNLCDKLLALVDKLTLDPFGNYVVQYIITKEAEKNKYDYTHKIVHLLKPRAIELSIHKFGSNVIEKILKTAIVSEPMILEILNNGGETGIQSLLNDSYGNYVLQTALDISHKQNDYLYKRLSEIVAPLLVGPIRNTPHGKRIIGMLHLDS
Kind of data set: Mg; RNA-MaP; 20 mM Na-HEPES pH 7.4, 30 mM KOAc, 0.75 mM MgCl2, 0.1% Tween-20, 5% glycerol, 0.1 mg/mL BSA, 2 mM DTT; 25 C; 0.0125-409.6 nM protein. The following applies: tags: N-His6-TEV cleaved; C-SNAP kept, Cy3B-labelled; label: tethered on chip by stalled RNA polymerase.
B1: binding was put at a Kd of 0.245 nM.

In the case of B2, the Kd came to 0.196 nM.

Regarding B3, the Kd amounted to 7.09 nM.

With B4, the Kd was determined as 10.9 nM.

Molecule B5 had a Kd of 0.234 nM.

The molecule B6 displayed a Kd of 9.57 nM.

In turn, B7 returned a Kd of 111 nM.

B8: the Kd was 14.4 nM.

Turning to B9, the Kd is 5.67 nM.

B10 had a Kd of 17.9 nM.

For B11, the Kd was 16.8 nM.

Consider B12, for which the Kd worked out at 0.188 nM.

Molecule B13 had a Kd of 47.4 nM.

For B14, the Kd is 127 nM.

The molecule B15 registered a Kd of 2.96 nM.

B16 had a Kd of 2.19 nM.

In the case of B17, the Kd worked out at 1.62 nM.

As to B18, the Kd came to 37.8 nM.

Molecule B19 displayed a Kd of 44.9 nM.

The molecule B20 displayed a Kd of 14.7 nM.

For the molecule B21, binding was characterised by a dissociation constant (Kd) of 0.232 nM.

Take B22: the Kd turned out to be 81.5 nM.

In turn, B23 had a Kd of 3.5 nM.

B24 registered a Kd of 2.56 nM.

B25 registered a Kd of 4.3 nM.

Molecule B26 had a Kd of 8.48 nM.

For B27, the dissociation constant (Kd) was determined as 34.1 nM.

For the molecule B28, the Kd is 198 nM.

The molecule B29 had a Kd of 27.8 nM.

B30 showed a Kd of 0.249 nM.

B31 showed a Kd of 0.12 nM.

B32 came in with a Kd of 122 nM.

In turn, B33 came in with a Kd of 101 nM.

Consider B34, for which the affinity, expressed as Kd, was 26.5 nM.

As to B35, binding was characterised by a dissociation constant (Kd) of 0.166 nM.

The molecule B36 yielded a Kd of 0.215 nM.

With B37, binding was put at a Kd of 5.38 nM.

As to B38, binding was characterised by a dissociation constant (Kd) of 2.02 nM.

In turn, B39 displayed a Kd of 3.44 nM.

For B40, binding was characterised by a dissociation constant (Kd) of 4.17 nM.

B41: binding was put at a Kd of 3.77 nM.

As a reminder, the Kd is the equilibrium constant for the complex coming apart. Read a low Kd as a tighter complex.
